Measurements published in patent US20160024487.

Tests used:
[1] = target: T1, Lys(Dnp)-ATNATAFPRIVGG-Lys(Abz)
T1 chain: KATNATAFPRIVGGK

[2] = target: T2, Lys(Dnp)-ATNATYQPRIVGG-Lys(Abz)
T2 chain: KATNATYQPRIVGGK

[3] = target: T3, Lys(Dnp)-ATNATLSPRIVGG-Lys(Abz)
T3 chain: KATNATLSPRIVGGK

[4] = target: T4, Lys(Dnp)-ATNATWGPRIVGG-Lys(Abz)
T4 chain: KATNATWGPRIVGGK

[5] = target: T5, Lys(Dnp)-ATNATLYPRIVGG-Lys(Abz)
T5 chain: KATNATLYPRIVGGK

[6] = target: T6, Lys(Dnp)-ATNATWHPRIVGG-Lys(Abz)
T6 chain: KATNATWHPRIVGGK

[7] = target: T7, Lys(Dnp)-ATNATWTPRIVGG-Lys(Abz)
T7 chain: KATNATWTPRIVGGK

[8] = target: T8, Lys(Dnp)-ATNATMHPRIVGG-Lys(Abz)
T8 chain: KATNATMHPRIVGGK

[9] = target: T9, Lys(Dnp)-ATNATAAPRIVGG-Lys(Abz)
T9 chain: KATNATAAPRIVGGK

[10] = target: T10, Lys(Dnp)-ATNATFYPRIVGG-Lys(Abz)
T10 chain: KATNATFYPRIVGGK

[11] = target: T11, Lys(Dnp)-ATNATIFPRIVGG-Lys(Abz)
T11 chain: KATNATIFPRIVGGK

[12] = target: T12, Lys(Dnp)-ATNATIWPRIVGG-Lys(Abz)
T12 chain: KATNATIWPRIVGGK

[13] = target: T13, Lys(Dnp)-ATNATFQPRIVGG-Lys(Abz)
T13 chain: KATNATFQPRIVGGK

[14] = target: T14, Lys(Dnp)-ATNATAVPRIVGG-Lys(Abz)
T14 chain: KATNATAVPRIVGGK

[15] = target: T15, Lys(Dnp)-ATNATLHPRIVGG-Lys(Abz)
T15 chain: KATNATLHPRIVGGK

[16] = target: T16, Lys(Dnp)-ATNATLWPRIVGG-Lys(Abz)
T16 chain: KATNATLWPRIVGGK

[17] = target: T17, Lys(Dnp)-ATNATLKPRIVGG-Lys(Abz)
T17 chain: KATNATLKPRIVGGK

[18] = target: T18, Lys(Dnp)-ATNATLIPRIVGG-Lys(Abz)
T18 chain: KATNATLIPRIVGGK

[19] = target: T19, Lys(Dnp)-ATNATIYPRIVGG-Lys(Abz)
T19 chain: KATNATIYPRIVGGK

[20] = target: T20, Lys(Dnp)-ATNATRSPRIVGG-Lys(Abz)
T20 chain: KATNATRSPRIVGGK

[21] = target: T21, Lys(Dnp)-ATNATSYPRIVGG-Lys(Abz)
T21 chain: KATNATSYPRIVGGK

[22] = target: T22, Lys(Dnp)-ATNATPDPRIVGG-Lys(Abz)
T22 chain: KATNATPDPRIVGGK

[23] = target: T23, Lys(Dnp)-ATNATNLPRIVGG-Lys(Abz)
T23 chain: KATNATNLPRIVGGK

[24] = target: T24, Lys(Dnp)-ATNATTKPRIVGG-Lys(Abz)
T24 chain: KATNATTKPRIVGGK

[25] = target: T25, Lys(Dnp)-ATNATQEPRIVGG-Lys(Abz)
T25 chain: KATNATQEPRIVGGK

[26] = target: T26, Lys(Dnp)-ATNATRYPRIVGG-Lys(Abz)
T26 chain: KATNATRYPRIVGGK

[27] = target: T27, Lys(Dnp)-ATNATTTPRIVGG-Lys(Abz)
T27 chain: KATNATTTPRIVGGK

[28] = target: T28, Lys(Dnp)-ATNATKQPRIVGG-Lys(Abz)
T28 chain: KATNATKQPRIVGGK

[29] = target: T29, Lys(Dnp)-ATNATHPPRIVGG-Lys(Abz)
T29 chain: KATNATHPPRIVGGK

[30] = target: T30, Lys(Dnp)-ATNATQNPRIVGG-Lys(Abz)
T30 chain: KATNATQNPRIVGGK

[31] = target: T31, Lys(Dnp)-ATNATDQPRIVGG-Lys(Abz)
T31 chain: KATNATDQPRIVGGK

[32] = target: T32, Lys(Dnp)-ATNATFSPRIVGG-Lys(Abz)
T32 chain: KATNATFSPRIVGGK

[33] = target: T33, Lys(Dnp)-ATNATLLPRIVGG-Lys(Abz)
T33 chain: KATNATLLPRIVGGK

[34] = target: T34, Lys(Dnp)-ATNATVEPRIVGG-Lys(Abz)
T34 chain: KATNATVEPRIVGGK

[35] = target: T35, Lys(Dnp)-ATNATQKPRIVGG-Lys(Abz)
T35 chain: KATNATQKPRIVGGK

[36] = target: T36, Lys(Dnp)-ATNATNWPRIVGG-Lys(Abz)
T36 chain: KATNATNWPRIVGGK

[37] = target: T37, Lys(Dnp)-ATNATKIPRIVGG-Lys(Abz)
T37 chain: KATNATKIPRIVGGK

[38] = target: T38, Lys(Dnp)-ATNATIAPRIVGG-Lys(Abz)
T38 chain: KATNATIAPRIVGGK

[39] = target: T39, Lys(Dnp)-ATNATDRPRIVGG-Lys(Abz)
T39 chain: KATNATDRPRIVGGK

[40] = target: T40, Lys(Dnp)-ATNATTHPRIVGG-Lys(Abz)
T40 chain: KATNATTHPRIVGGK

[41] = target: T41, Lys(Dnp)-ATNATVGPRIVGG-Lys(Abz)
T41 chain: KATNATVGPRIVGGK

B1: Human plasma purified Factor Xa (protein)
chain 1: ANSFLEEMKKGHLERECMEETCSYEEAREVFEDSDKTNEFWNKYKDGDQCETSPCQNQGKCKDGLGEYTCTCLEGFEGKNCELFTRKLCSLDNGDCDQFCHEEQNSVVCSCARGYTLADNGKACIPTGPYPCGKQTLER
chain 2: IVGGQECKDGECPWQALLINEENEGFCGGTILSEFYILTAAHCLYQAKRFKVRVGDRNTEQEEGGEAVHEVEVVIKHNRFTKETYDFDIAVLRLKTPITFRMNVAPACLPERDWAESTLMTQKTGIVSGFGRTHEKGRQSTRLKMLEVPYVDRNSCKLSSSFIITQNMFCAGYDTKQEDACQGDSGGPHVTRFKDTYFVTGIVSWGEGCARKGKYGIYTKVTAFLKWIDRSMKTRGLPKAKSHAPEVITSSPLK
[1]
  FXa kcat/KM: 22 M⁻¹ s⁻¹
[2]
  FXa kcat/KM: 60 M⁻¹ s⁻¹
[3]
  FXa kcat/KM: 690 M⁻¹ s⁻¹
[4]
  FXa kcat/KM: 61 M⁻¹ s⁻¹
[5]
  FXa kcat/KM: 160 M⁻¹ s⁻¹
[6]
  FXa kcat/KM: 42 M⁻¹ s⁻¹
[7]
  FXa kcat/KM: 46 M⁻¹ s⁻¹
[8]
  FXa kcat/KM: 290 M⁻¹ s⁻¹
[9]
  FXa kcat/KM: 45 M⁻¹ s⁻¹
[10]
  FXa kcat/KM: 71 M⁻¹ s⁻¹
[11]
  FXa kcat/KM: 130 M⁻¹ s⁻¹
[12]
  FXa kcat/KM: 1500 M⁻¹ s⁻¹
[13]
  FXa kcat/KM: 260 M⁻¹ s⁻¹
[14]
  FXa kcat/KM: 42 M⁻¹ s⁻¹
[15]
  FXa kcat/KM: 540 M⁻¹ s⁻¹
[16]
  FXa kcat/KM: 1000 M⁻¹ s⁻¹
[17]
  FXa kcat/KM: 72 M⁻¹ s⁻¹
[18]
  FXa kcat/KM: 420 M⁻¹ s⁻¹
[19]
  FXa kcat/KM: 220 M⁻¹ s⁻¹

B2: Human plasma purified Factor Xa (Molecular Innovations, Inc) (protein)
chain 1: ANSFLEEMKKGHLERECMEETCSYEEAREVFEDSDKTNEFWNKYKDGDQCETSPCQNQGKCKDGLGEYTCTCLEGFEGKNCELFTRKLCSLDNGDCDQFCHEEQNSVVCSCARGYTLADNGKACIPTGPYPCGKQTLER
chain 2: IVGGQECKDGECPWQALLINEENEGFCGGTILSEFYILTAAHCLYQAKRFKVRVGDRNTEQEEGGEAVHEVEVVIKHNRFTKETYDFDIAVLRLKTPITFRMNVAPACLPERDWAESTLMTQKTGIVSGFGRTHEKGRQSTRLKMLEVPYVDRNSCKLSSSFIITQNMFCAGYDTKQEDACQGDSGGPHVTRFKDTYFVTGIVSWGEGCARKGKYGIYTKVTAFLKWIDRSMKTRGLPKAKSHAPEVITSSPLK
[20]
  FXa kcat/KM: 2700 M⁻¹ s⁻¹
[21]
  FXa kcat/KM: 13 M⁻¹ s⁻¹
[22]
  FXa kcat/KM: 790 M⁻¹ s⁻¹
[23]
  FXa kcat/KM: 110 M⁻¹ s⁻¹
[24]
  FXa kcat/KM: 14 M⁻¹ s⁻¹
[25]
  FXa kcat/KM: 920 M⁻¹ s⁻¹
[26]
  FXa kcat/KM: 960 M⁻¹ s⁻¹
[27]
  FXa kcat/KM: 17 M⁻¹ s⁻¹
[28]
  FXa kcat/KM: 100 M⁻¹ s⁻¹
[29]
  FXa kcat/KM: 7 M⁻¹ s⁻¹
[30]
  FXa kcat/KM: 610 M⁻¹ s⁻¹
[31]
  FXa kcat/KM: 2.2 M⁻¹ s⁻¹
[32]
  FXa kcat/KM: 190 M⁻¹ s⁻¹
[33]
  FXa kcat/KM: 590 M⁻¹ s⁻¹
[34]
  FXa kcat/KM: 110 M⁻¹ s⁻¹
[35]
  FXa kcat/KM: 49 M⁻¹ s⁻¹
[36]
  FXa kcat/KM: 86 M⁻¹ s⁻¹
[37]
  FXa kcat/KM: 62 M⁻¹ s⁻¹
[38]
  FXa kcat/KM: 650 M⁻¹ s⁻¹
[39]
  FXa kcat/KM: 190 M⁻¹ s⁻¹
[40]
  FXa kcat/KM: 14 M⁻¹ s⁻¹
[41]
  FXa kcat/KM: 49 M⁻¹ s⁻¹
